Test results as given in patent US20110136724A1 (IPSEN PHARMA S A S, published 2011).
Primed or numbered codes have the meaning given here. Where no end group is shown, it is not given here. [ ]: non-standard residue; d: D form. The star is where a group is joined. Psu″ = N-propylsuccinimide on the Cys thiol (Cys(Psu)), CCCN1C(=O)CC(*)C1=O; Psu(3) = N-propylsuccinimide on Cys S, CCCN1C(=O)CC(*)C1=O; Hsu = N-hexylsuccinimide on Cys S, CCCCCCN1C(=O)CC(*)C1=O; Psu = N-propylsuccinimide (on the Cys sulfur); 2Nal = N[C@@H](Cc1ccc2ccccc2c1)C(=O)O; d2Nal = N[C@H](Cc1ccc2ccccc2c1)C(=O)O; Cyclohexanecarbonyl = O=C(C1CCCCC1)*; Myristoyl = CCCCCCCCCCCCCC(=O)*; Cys(Psu) = not defined here; Decanoyl = CCCCCCCCCC(=O)*; Ac6c = NC1(C(=O)O)CCCCC1; Nle = CCCC[C@H](N)C(=O)O; Orn = NCCC[C@H](N)C(=O)O; Hexanoyl = CCCCCC(=O)*; Aib = CC(C)(N)C(=O)O

T1: human recombinant GIP receptor (human, UniProt P48546 22-466)
T1 construct: whole, on cells; Assayed as washed membranes of CHO-K1 cells expressing the receptor; also called hGIP receptor
T1 sequence (looked up): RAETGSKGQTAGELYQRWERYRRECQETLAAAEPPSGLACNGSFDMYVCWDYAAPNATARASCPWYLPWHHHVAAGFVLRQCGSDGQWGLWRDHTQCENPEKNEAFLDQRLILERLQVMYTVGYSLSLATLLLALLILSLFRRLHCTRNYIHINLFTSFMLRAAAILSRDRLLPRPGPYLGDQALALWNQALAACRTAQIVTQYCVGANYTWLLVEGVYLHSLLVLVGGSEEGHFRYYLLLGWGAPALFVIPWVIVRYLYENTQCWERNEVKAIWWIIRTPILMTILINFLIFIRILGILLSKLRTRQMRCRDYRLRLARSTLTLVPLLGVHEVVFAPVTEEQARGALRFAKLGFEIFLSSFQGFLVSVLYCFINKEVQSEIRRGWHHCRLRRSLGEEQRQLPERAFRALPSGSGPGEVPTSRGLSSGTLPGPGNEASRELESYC

B1: (4Hppa^2, 4Hyp^3, A6c^7)hGIP(2-42)-OH (peptide)
peptide: XXGTFXSDYSIAMDKIHQQDFVNWLLAQKGKKNDWKHNITQ
modifications: 4Hppa (3-(4-hydroxyphenyl)propionic acid) at 2; 4Hyp at 3; A6c at 7; hGIP numbering; C-terminal free acid
notes: Synthetic analogue of human GIP
B2: [Ac-A6c^7, Cys(Psu)^31]hGIP(7-31)-NH2 (peptide)
peptide: XSDYSIAMDKIHQQDFVNWLLAQKC
modifications: N-terminal acetyl (Ac); A6c at 7; Cys(Psu) at 31; hGIP numbering; C-terminal amide
notes: as for B1
B3: (Ac-A6c^7, Gln^43)hGIP(7-43)-OH (peptide)
peptide: XSDYSIAMDKIHQQDFVNWLLAQKGKKNDWKHNITQQ
modifications: N-terminal acetyl (Ac); A6c at 7; added Gln at 43; hGIP numbering; C-terminal free acid
notes: Synthetic analogue of human GIP with an added residue 43
B4: [Ac-Phe^6, A6c^7, Cys(Psu)^31]hGIP(6-31)-NH2 (peptide)
peptide: FXSDYSIAMDKIHQQDFVNWLLAQKC
modifications: N-terminal acetyl (Ac) on Phe 6; A6c at 7; Cys(Psu) at 31; hGIP numbering; C-terminal amide
notes: as for B1
B5: (Ac-4Hyp^3, A6c^7)hGIP(3-42)-OH (peptide)
peptide: XGTFXSDYSIAMDKIHQQDFVNWLLAQKGKKNDWKHNITQ
modifications: N-terminal acetyl (Ac); 4Hyp (4-hydroxyproline) at 3; A6c at 7; hGIP numbering; C-terminal free acid
notes: as for B1
B6: (Ac-A6c^7, Cys(Psu)^31]hGIP(7-34)-NH2 (peptide)
peptide: XSDYSIAMDKIHQQDFVNWLLAQKCKKN
modifications: N-terminal acetyl (Ac); A6c at 7; Cys(Psu) at 31; hGIP numbering; C-terminal amide
notes: as for B1
B7: [Ac-A6c^7, Orn^31(N-C(O)-(CH2)12-CH3)]hGIP(7-42)-OH (peptide)
peptide: Ac-[Ac6c]SDYSIAMDKIHQQDFVNWLLAQK[Orn](Myristoyl)KKNDWKHNITQ-OH
notes: Synthetic analogue of human GIP; also called [Ac-Ac6c^7, Orn(N-C(O)-(CH2)12-CH3)^31]hGIP(7-42)-OH
B8: (A5c^7, Nle^14)hGIP(6-30)-NH2 (peptide)
peptide: FXSDYSIAXDKIHQQDFVNWLLAQK
modifications: A5c (1-amino-1-cyclopentanecarboxylic acid) at 7; Nle (norleucine) at 14; hGIP numbering; C-terminal amide
notes: as for B1

Molecular target: T1, human recombinant GIP receptor
Assay: radioligand competition, [125I]GIP on membranes of CHO-K1 cells expressing human GIP receptor

| Binder | Ki |
| --- | --- |
| FXSDYSIAXDKIHQQDFVNWLLAQK (A6c at 7; Nle at 14; hGIP numbering; C-terminal amide, Synthetic analogue of human GIP) [(A6c^7, Nle^14)hGIP(6-30)-NH2] | 212 nM |
| Hexanoyl-SDYSIAMDKIHQQDFVNWLLAQK[Cys(Psu)]KKNDWKHNITQ-OH (reading uncertain, Synthetic analogue of human GIP) [[CH3-(CH2)4-C(O)-Ser^8, Cys(Psu)^31]hGIP(8-42)-OH] | 205 nM |
| B1 | 294 nM |
| XEGTFISDYXIAMDKIHQQDFVNWLLAQKGKKNDWKHNITQ (4Hppa at 2; A6c at 11; hGIP numbering; C-terminal free acid, Synthetic analogue of human GIP) [(4Hppa^2, A6c^11)hGIP(2-42)-OH] | 91.8 nM |
| XPGTFISDYSIAXDKIHQQDFVNWLLAQKGKKNDWKHNITQ (4Hppa at 2; Pro at 3; Nle at 14; hGIP numbering; C-terminal free acid, Synthetic analogue of human GIP) [(4Hppa^2, Pro^3, Nle^14)hGIP(2-42)-OH] | 800 nM |
| XEGTFISDYSIXMDKIHQQDFVNWLLAQKGKKNDWKHNITQ (4Hppa at 2; Aib at 13; hGIP numbering; C-terminal free acid, Synthetic analogue of human GIP) [(4Hppa^2, Aib^13)hGIP(2-42)-OH)] | 12.9 nM |
| XEGTFISDYSIAXDKIHQQDFVNWLLAQKGKKNDWKHNITQ (4Hppa at 2; A6c at 14; hGIP numbering; C-terminal free acid, Synthetic analogue of human GIP) [(4Hppa^2, A6c^14)hGIP(2-42)-OH] | 50.4 nM |
| B2 | 48.3 nM |
| F[Ac6c]SDYSIAMDKIHQQDFVNWLLAQKC(Psu(3))KKNDWKHNITQ-OH (Synthetic analogue of human GIP) [[A6c^7, Cys(Psu)^31]hGIP(6-42)-OH] | 277 nM |
| B3 | 7.92 nM |
| FXSDYSIAMDKIHQQDFVNWLLAQK (N-terminal acetyl (Ac) on Phe 6; A6c at 7; hGIP numbering; C-terminal amide, Synthetic analogue of human GIP) [(Ac-Phe^6, A6c^7)hGIP(6-30)-NH2] | 68.5 nM |
| B4 | 77.5 nM |
| FISDY[Aib]IA[Nle]DKIHQQDFVNWLLAQK-NH2 (Synthetic analogue of human GIP) [(Aib^11, Nle^14)hGIP(6-30)-NH2] | 170 nM |
| Cyclohexanecarbonyl-SDYSIAMDKIHQQDFVNWLLAQK[Cys(Psu)]KKNDWKHNITQ-OH (reading uncertain, Synthetic analogue of human GIP) [[Chc-Ser^8, Cys(Psu)^31]hGIP(8-42)-OH] | 403 nM |
| Ac-[Ac6c]SDYSIAMDKIHQQDFVNWLLAQKC(Psu(3))KKNDWKHNITQ-OH (Synthetic analogue of human GIP) [[Ac-A6c^7, Cys(Psu)^31]hGIP(7-42)-OH] | 963 nM |
| Ac-[Ac6c]SDYSIAMDKIHQQDFVNWLLAQKGKKC(Psu)DWKHNITQ-OH (Synthetic analogue of human GIP) [[Ac-A6c^7, Cys(Psu)^34]hGIP(7-42)-OH] | 735 nM |
| Ac-[Ac6c]SDYSIAMDKIHQQDFVNWLLAQKGKC(Psu)NDWKHNITQ-OH (Synthetic analogue of human GIP) [[Ac-A6c^7, Cys(Psu)^33]hGIP(7-42)-OH] | 417 nM |
| Ac-[Ac6c]SDYSIAMDKIHQQDFVNWLLAQKGKKNDC(Psu)KHNITQ-OH (Synthetic analogue of human GIP) [[Ac-A6c^7, Cys(Psu)^36]hGIP(7-42)-OH] | 442 nM |

| Binder | Ki |
| --- | --- |
| Ac-[Ac6c]SDYSIAMDKIHQQDFVNWLLAQKGKKNDWKHNC(Psu″)TQ-OH (Synthetic analogue of human GIP) [[Ac-A6c^7, Cys(Psu)^40]hGIP(7-42)-OH] | 532 nM |
| Ac-[Ac6c]SDYSIAMDKIHQQDFVNWLLAQKGKKNDWKC(Psu″)NITQ-OH (Synthetic analogue of human GIP) [[Ac-A6c^7, Cys(Psu)^38]hGIP(7-42)-OH] | 333 nM |
| Ac-[Ac6c]SDYSIAMDKIHQQDFVNWLLAQKGKKNDWC(Psu″)HNITQ-OH (Synthetic analogue of human GIP) [[Ac-A6c^7, Cys(Psu)^37]hGIP(7-42)-OH] | 127 nM |
| Ac-[Ac6c]SDYSIAMDKIHQQDFVNWLLAQKGKKNDWKHC(Psu″)ITQ-OH (Synthetic analogue of human GIP) [[Ac-A6c^7, Cys(Psu)^39]hGIP(7-42)-OH] | 75.7 nM |
| Ac-[Ac6c]SDYSIAMDKIHQQDFVNWLLAQKGKKNC(Psu)WKHNITQ-OH (Synthetic analogue of human GIP) [[Ac-A6c^7, Cys(Psu)^35]hGIP(7-42)-OH] | 486 nM |
| Ac-[Ac6c]SDYSIAMDKIHQQDFVNWLLAQKGC(Psu)KNDWKHNITQ-OH (Synthetic analogue of human GIP) [[Ac-A6c^7, Cys(Psu)^32]hGIP(7-42)-OH] | 687 nM |
| Ac-DYSIAMDKIHQQDFVNWLLAQKGK[Cys(Psu)]NDWKHNITQ-OH (reading uncertain, Synthetic analogue of human GIP) [[Ac-Asp^9, Cys(Psu)^33]hGIP(9-42)-OH] | 472 nM |
| B5 | 546 nM |
| B6 | 115 nM |
| [Ac6c]SDYSIAMDKIHQQDFVNWLLAQKGKK[Orn](Decanoyl)DWKHNITQ-OH (Synthetic analogue of human GIP) [[A6c^7, Orn^34(N-C(O)-(CH2)8-CH3)]hGIP(7-42)-OH] | 274 nM |
| Ac-[Ac6c]SDYSIAMDKIHQQDFVNWLLAQK[2Nal]KKNDWKHNITQ-OH (Synthetic analogue of human GIP) [(Ac-A6c^7, 2Nal^31)hGIP(7-42)-OH] | 194 nM |
| [Ac6c]SDYSIAMDKIHQQDFVNWLLAQKC(Hsu)KKNDWKHNITQ-OH (Synthetic analogue of human GIP) [[A6c^7, Cys(Hsu)^31]hGIP(7-42)-OH] | 772 nM |
| Decanoyl-[Ac6c]SDYSIAMDKIHQQDFVNWLLAQKGKK[Orn](Decanoyl)DWKHNITQ-OH (Synthetic analogue of human GIP) [[CH3-(CH2)8-C(O)-A6c^7, Orn^34(N-C(O)-(CH2)8-CH3)]hGIP(7-42)-OH] | 164 nM |
| Ac-F[Ac6c]SDYSIAMDKIHQQDFVNWLLAQKC(Psu″)KKNDWKHNITQ-OH (Synthetic analogue of human GIP) [[Ac-Phe^6, A6c^7, Cys(Psu)^31]hGIP(6-42)-OH] | 574 nM |
| Ac-[Ac6c]SDYSIAMDKIHQQDFVNWLLAQK[d2Nal]KKNDWKHNITQ-OH (X stands for the non-natural residues) [(Ac-A6c^7, D-2Nal^31)hGIP(7-42)-OH] | 159 nM |
| FXSDYSIAMDKIHQQDFVNWLLAQKC (A6c at 7; Cys(Psu) at 31; hGIP numbering; C-terminal amide, Synthetic analogue of human GIP) [[A6c^7, Cys(Psu)^31]hGIP(6-31)-NH2] | 101 nM |
| B7 | 178 nM |
| B8 | 734 nM |
